For the assay, the target named is E. coli bacteria. Nature of the assay: binding to whole E. coli cells in presence of purified E. coli B LPS. The following applies: read off a plot.

On to “Phage T4 LTF needle (gp37; amino acids 799–1026), wild type (from UniProt P03744) G938A”, for which the response reads like this: (LPS 0.32 ng, parent: est. 32) 90 % Binding; (LPS 1.6 ng, parent: est. 47) 85 % Binding; (LPS 8 ng, parent: est. 62) 92 % Binding; (LPS 40 ng, parent: est. 87) 92 % Binding; (LPS 200 ng, parent: est. 130) 100 % Binding; (LPS 1000 ng, parent: est. 190) 110 % Binding. Under “LPS 5000 ng, parent: est. 230”, the response was determined as 120 % Binding.

Regarding “Phage T4 LTF needle (gp37; amino acids 799–1026), wild type (from UniProt P03744) N937A”, the response (LPS 0.32 ng, parent: est. 32) came to 90 % Binding; the response (LPS 1.6 ng, parent: est. 47) amounted to 92 % Binding; the response (LPS 8 ng, parent: est. 62) is 94 % Binding; the response (LPS 40 ng, parent: est. 87) was determined as 98 % Binding; the response (LPS 200 ng, parent: est. 130) was 110 % Binding; the response (LPS 1000 ng, parent: est. 190) was found to be 140 % Binding. In addition, for the setting “LPS 5000 ng, parent: est. 230”, the response stood at 150 % Binding.

Values taken from PMC6957217.
